Assay results taken from PMC2939310 (Biochemistry, 2010).

Target: the molecule itself
Assay: SEC

B1: DesVII-C-His6/DesVIII-N-Stag heterodimer (complex, Streptomyces venezuelae)
chain 1: MRVLLTSFAHHTHYYGLVPLAWALLAAGHEVRVASQPALTDTITGSGLAAVPVGTDHLIHEYRVRMAGEPRPNHPAIAFDEARPEPLDWDHALGIEAILAPYFYLLANNDSMVDDLVDFARSWQPDLVLWEPTTYAGAVAAQVTGAAHARVLWGPDVMGSARRKFVALRDRQPPEHREDPTAEWLTWTLDRYGASFEEELLTGQFTIDPTPPSLRLDTGLPTVGMRYVPYNGTSVVPDWLSEPPARPRVCLTLGVSAREVLGGDGVSQGDILEALADLDIELVATLDASQRAEIRNYPKHTRFTDFVPMHALLPSCSAIIHHGGAGTYATAVINAVPQVMLAELWDAPVKARAVAEQGAGFFLPPAELTPQAVRDAVVRILDDPSVATAAHRLREETFGDPTPAGIVPELERLAAQHRRPPADARH
chain 2: MTDDLTGALTQPPLGRTVRAVADRELGTHLLETRGIHWIHAANGDPYATVLRGQADDPYPAYERVRARGALSFSPTGSWVTADHALAASILCSTDFGVSGADGVPVPQQVLSYGEGCPLEREQVLPAAGDVPEGGQRAVVEGIHRETLEGLAPDPSASYAFELLGGFVRPAVTAAAAAVLGVPADRRADFADLLERLRPLSDSLLAPQSLRTVRAADGALAELTALLADSDDSPGALLSALGVTAAVQLTGNAVLALLAHPEQWRELCDRPGLAAAAVEETLRYDPPVQLDARVVRGETELAGRRLPAGAHVVVLTAATGRDPEVFTDPERFDLARPDAAAHLALHPAGPYGPVASLVRLQAEVALRTLAGRFPGLRQAGDVLRPRRAPVGRGPLSVPVSSS
- stoichiometry N: 3 heterodimers in the complex
